Results from US5493008A, “Two non-contiguous regions contribute to nidogen binding to a single EGF-like motif of the laminin γ1 chain” (The University Of Virginia Patent Foundation, priority 1994, dated 1996).
Changes are numbered by the printed parent chain. Like-named read-outs stand apart in the source and are kept apart here. Where no end group is shown, it is not given here. The star is where a group is joined. Succinimide(1-Et,3-yl) = CCN1C(=O)CC(*)C1=O

Columns and labels:
[1] = biological target: T1, recombinant nidogen (Mus musculus (Mouse)) (UniProt P10493); test: radioligand competition assay
T1 sequence: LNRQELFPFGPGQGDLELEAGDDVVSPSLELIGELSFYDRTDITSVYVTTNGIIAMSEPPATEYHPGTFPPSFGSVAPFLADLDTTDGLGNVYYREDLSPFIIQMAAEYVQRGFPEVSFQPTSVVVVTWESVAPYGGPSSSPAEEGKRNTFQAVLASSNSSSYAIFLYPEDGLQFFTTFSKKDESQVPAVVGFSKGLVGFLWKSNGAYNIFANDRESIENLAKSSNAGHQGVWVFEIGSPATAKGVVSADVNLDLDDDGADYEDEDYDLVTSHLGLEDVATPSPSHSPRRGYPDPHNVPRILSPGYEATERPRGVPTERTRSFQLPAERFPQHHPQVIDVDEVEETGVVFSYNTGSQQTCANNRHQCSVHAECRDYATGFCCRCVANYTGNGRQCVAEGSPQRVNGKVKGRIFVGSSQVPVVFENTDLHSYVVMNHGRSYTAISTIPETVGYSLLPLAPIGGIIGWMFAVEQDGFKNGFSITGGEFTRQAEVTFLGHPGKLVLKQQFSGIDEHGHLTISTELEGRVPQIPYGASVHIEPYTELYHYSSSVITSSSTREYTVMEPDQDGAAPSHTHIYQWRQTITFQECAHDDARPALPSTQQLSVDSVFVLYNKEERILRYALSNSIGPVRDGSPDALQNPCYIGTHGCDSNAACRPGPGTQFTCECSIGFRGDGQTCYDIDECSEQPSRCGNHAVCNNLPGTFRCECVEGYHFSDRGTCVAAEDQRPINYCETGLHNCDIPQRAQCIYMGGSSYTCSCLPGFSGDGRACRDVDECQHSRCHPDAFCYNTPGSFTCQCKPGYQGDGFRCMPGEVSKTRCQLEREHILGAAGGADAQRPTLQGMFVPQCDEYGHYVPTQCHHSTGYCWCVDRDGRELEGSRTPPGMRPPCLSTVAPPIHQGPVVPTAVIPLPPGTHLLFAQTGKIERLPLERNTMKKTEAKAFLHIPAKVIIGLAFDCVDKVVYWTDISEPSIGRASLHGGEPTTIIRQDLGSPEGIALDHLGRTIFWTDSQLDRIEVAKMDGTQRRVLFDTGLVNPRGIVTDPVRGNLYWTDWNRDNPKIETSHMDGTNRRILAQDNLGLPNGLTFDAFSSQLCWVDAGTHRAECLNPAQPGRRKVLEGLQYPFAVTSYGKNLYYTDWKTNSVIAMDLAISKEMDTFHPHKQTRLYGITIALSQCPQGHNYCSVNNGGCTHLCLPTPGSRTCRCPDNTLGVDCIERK

[2] = biological target: T1, recombinant nidogen (Mus musculus (Mouse)); test: radioligand competition assay: inhibitor varied, 0.2 nM recombinant nidogen, 125I-laminin fragment P1
nidogen = biological target: T2, nidogen (Mus musculus, UniProt P10493); details: Fox et al. 1991; read-out: κD of the high affinity binding site for nidogen; cited from earlier work
T2 sequence (P10493 29-1245): T1 sequence

[3] = biological target: T1, recombinant nidogen (Mus musculus (Mouse)); test: radioligand competition assay: non-labeled fragment P1 varied, 0.2 nM recombinant nidogen, 125I-laminin fragment P1
[4] = biological target: T1, recombinant nidogen (Mus musculus (Mouse)); test: as above; remark: listed apart in the source
[5] = biological target: T1, recombinant nidogen (Mus musculus (Mouse)); test: radioligand competition assay, average of 14 separate assays: non-labeled fragment P1 varied, 0.2 nM recombinant nidogen, 125I-laminin fragment P1
[6] = biological target: T1, recombinant nidogen (Mus musculus (Mouse)); test: radioligand competition assay, synthetic heptapeptide variant
recombinant nidogen [7] = biological target: T3, recombinant nidogen (Mus musculus (Mouse), UniProt P10493); test: radioligand competition assay: inhibitor varied, 0.2 nM recombinant nidogen, 125I-laminin fragment P1
T3 sequence: T1 sequence
Procedure: (§1) A radioligand competition assay was used for measurement of relative binding affinities (Mann K. et al. (1988), Eur. J. Biochem., 178, 71–80; Fox, J. W. et al. (1991), EMBO J., 10, 3137–3146). A fixed concentration of recombinant nidogen (0.2 nM) was incubated overnight at 4° C. with inhibitors at varying concentrations, followed by the addition of ^125I-labeled laminin fragment P1 (0.01 nM; 10,000–20,000 c.p.m.) for the same incubation period. Bound and non-bound fragment P1 was then separated by antibodies against nidogen.

recombinant nidogen [8] = biological target: T3, recombinant nidogen; test: radioligand competition assay
Procedure: as §1

recombinant nidogen [9] = biological target: T3, recombinant nidogen; test: radioligand competition assay: inhibitor varied, 0.2 nM recombinant nidogen, 125I-laminin fragment P1; remark: listed apart in the source
Procedure: as §1

recombinant nidogen [10] = biological target: T3, recombinant nidogen; test: as above; remark: listed apart in the source
Procedure: as §1

recombinant nidogen [11] = biological target: T3, recombinant nidogen; test: radioligand competition assay, nitrated γ1III3-5
Procedure: as §1

recombinant nidogen [12] = biological target: T3, recombinant nidogen; test: radioligand competition assay, Tyr-acetylated γ1III3-5
Procedure: as §1

recombinant nidogen [13] = biological target: T3, recombinant nidogen; test: radioligand competition assay, synthetic heptapeptide variant
Procedure: as §1

recombinant nidogen [14] = biological target: T3, recombinant nidogen; test: radioligand competition assay, reduced and alkylated against the non-reduced chimera
Procedure: as §1

recombinant nidogen [15] = biological target: T3, recombinant nidogen; test: radioligand competition assay; end of the range tied to this mutant by its IC50 in Table IV
Procedure: as §1

recombinant nidogen [16] = biological target: T3, recombinant nidogen; test: radioligand competition assay, reduced and alkylated against the non-reduced mutant
Procedure: as §1

IOPNAVGN (S, 799-806) (peptide) gave a fold loss in activity [1] of 2 fold.

Molecule T1, 792-809 (peptide) has an IC50 [2] of 500 nM.

For “laminin 1: laminin of chain composition α1β1γ1”, the Kd (nidogen) is given as 0.5 nM.

Work on laminin fragment P1 yielded an IC50 [3] of 0.05 nM, an IC50 [4] of 0.08 nM and an IC50 [5] of 0.05 nM.

“synthetic loop a,b, non-oxidized (792-815) (peptide)” showed an IC50 [2] of 400 nM and a fold higher IC50 than fragment P1 [1] of 5000 fold.

Work on γ1III3-5Δ4 (from UniProt P02468) yielded an IC50 [2] of over 3200 nM.

Molecule γ1III3ab4cd (from UniProt P02468) has an IC50 [2] of 1100 nM.

Molecule γ1III4ab3cd (from UniProt P02468) has an IC50 [2] of 80 nM, a fold higher activity than synthetic oxidized loop a,b [1] of 3 fold and a further fold decrease in activity against modification of Tyr819 [1] of 30 fold.

B1: NINPNAV (peptide)
peptide: NINPNAV
In the case of B1, the IC50 [2] is reported as 100000 nM and the fold reduction in activity against the heptapeptide NIDPNAV [6] is reported as 100 fold.

B2: γ1III3-5, Lys acetylation (other)
chain: PCPCPGGSSCAIVPKTKEVVCTHCPTGTAGKRCELCDDGYFGDPLGSNGPVRLCRPCQCNDNIDPNAVGNCNRLTGECLKCIYNTAGFYCDRCKEGFFGNPLAPNPADKCKACACNPYGTVQQQSSCNPVTGQCQCLPHVSGRDCGTCDPGYYNLQSGQGCE
modifications: lysine amino groups acetylated with acetic acid anhydride
For B2, the IC50 (recombinant nidogen [7]) was 0.27 nM and the “fold decrease in binding activity against unmodified γ1III3-5” value (“fold decrease in binding activity” below) (recombinant nidogen [8]) was 7 fold.

B3: synthetic loop a,b, oxidized (792-815) (peptide)
peptide: PCQCNDNTDPNAVGNCNRLTGECL
modifications: disulfide (positions not given here)
With B3 the IC50 (recombinant nidogen [9]) was 270 nM, the IC50 (recombinant nidogen [7]) was 380 nM and the “fold higher IC50 than fragment P1” value (recombinant nidogen [8]) was 5000 fold.

B4: heptapeptide NIDPNAV (S, 798-804) (peptide)
peptide: NIDPNAV
In the case of B4, the IC50 (recombinant nidogen [7]) is reported as 800 nM and the IC50 (recombinant nidogen [10]) is reported as 900 nM.

B5: nitrated γ1III3-5 (other)
chain: B2 chain
modifications: tyrosines nitrated with tetranitromethane
With B5 the IC50 (recombinant nidogen [7]) was 3 nM and the “fold decrease in binding activity” value (recombinant nidogen [11]) was 75 fold.

B6: γ1III3-5, Tyr acetylation (other)
chain: B2 chain
modifications: tyrosine hydroxyl groups acetylated with acetic acid anhydride
For B6, the IC50 (recombinant nidogen [7]) was 3 nM and the “fold decrease in binding activity” value (recombinant nidogen [12]) was 75 fold.

B7: NIDQNAV (peptide)
peptide: NIDQNAV
For B7, the “fold decrease in activity against the heptapeptide NIDPNAV” value (recombinant nidogen [13]) was 3 fold and the IC50 (recombinant nidogen [10]) was 2400 nM.

B8: NIDPNVV (peptide)
peptide: NIDPNVV
For B8, the “fold decrease in activity against the heptapeptide NIDPNAV” value (recombinant nidogen [13]) was 16 fold and the IC50 (recombinant nidogen [10]) was 16000 nM.

B9: NVDPNAV (peptide)
peptide: NVDPNAV
For B9, the IC50 (recombinant nidogen [10]) was 1200 nM.

B10: γ1III4 (other)
chain: PCQCNDNIDPNAVGNCNRLTGECLKCIYNTAGFYCDRCKEGFFGNPLAPNPADKCK
modifications: disulfide (positions not given here); not fully specified (bridges); also: four disulfide-bonded loops, pairing not given here
B10 gave an IC50 (recombinant nidogen [9]) of 0.05 nM.

B11: γ1III4ab3cd, reduced (other)
chain: PC(Succinimide(1-Et,3-yl))QC(Succinimide(1-Et,3-yl))NDNIDPNAVGNC(Succinimide(1-Et,3-yl))NRLTGEC(Succinimide(1-Et,3-yl))LKC(Succinimide(1-Et,3-yl))PTGTAGKRC(Succinimide(1-Et,3-yl))ELC(Succinimide(1-Et,3-yl))DDGYFGDPLGSNGPVRLC(Succinimide(1-Et,3-yl))R
For B11, the IC50 (recombinant nidogen [9]) was 520 nM.

B12: γ1III3ab4cd, reduced (other)
chain: PC(Succinimide(1-Et,3-yl))PC(Succinimide(1-Et,3-yl))PGGSSC(Succinimide(1-Et,3-yl))AIVPKTKEVVC(Succinimide(1-Et,3-yl))THC(Succinimide(1-Et,3-yl))IYNTAGFYC(Succinimide(1-Et,3-yl))DRC(Succinimide(1-Et,3-yl))KEGFFGNPLAPNPADKC(Succinimide(1-Et,3-yl))K
For B12, the IC50 (recombinant nidogen [9]) was 6700 nM and the “fold decrease in activity on reduction and alkylation” value (recombinant nidogen [14]) was 6 fold.

B13: γ1III4Y819-A (other)
chain: B10 chain with Y28A
In the case of B13, the IC50 (recombinant nidogen [9]) is reported as 3 nM and the “fold reduction in activity against wild-type γ1III4” value (recombinant nidogen [15]) is reported as 30 to 60 fold.

B14: γ1III4Y825-A (other)
chain: B10 chain with Y34A
B14 gave an IC50 (recombinant nidogen [9]) of 0.06 nM.

B15: γ1III4Y819/825-A (other)
chain: B10 chain with Y28A, Y34A
In the case of B15, the IC50 (recombinant nidogen [9]) is reported as 1.5 nM and the “fold reduction in activity against wild-type γ1III4” value (recombinant nidogen [15]) is reported as 30 to 60 fold.

B16: γ1III4Y819/825-A, reduced (other)
chain: PC(Succinimide(1-Et,3-yl))QC(Succinimide(1-Et,3-yl))NDNIDPNAVGNC(Succinimide(1-Et,3-yl))NRLTGEC(Succinimide(1-Et,3-yl))LKC(Succinimide(1-Et,3-yl))IANTAGFAC(Succinimide(1-Et,3-yl))DRC(Succinimide(1-Et,3-yl))KEGFFGNPLAPNPADKC(Succinimide(1-Et,3-yl))K
For B16, the IC50 (recombinant nidogen [9]) was 430 nM and the “fold decrease in activity on reduction and alkylation” value (recombinant nidogen [16]) was about 300 fold.

B17: γ1III4D800-N (other)
chain: B10 chain with D9N
B17 showed an IC50 (recombinant nidogen [9]) of 1000 nM.

B18: NVDPSAV (peptide)
peptide: NVDPSAV
B18: no binding (tested: >180,000 nM) (recombinant nidogen [7]).

B19: NVDPNAS (peptide)
peptide: NVDPNAS
B19: no binding (tested: >160,000 nM) (recombinant nidogen [7]).

B20: NVDPSAS (peptide)
peptide: NVDPSAS
B20: no binding (tested: >290,000 nM) (recombinant nidogen [7]).
